Experimental data taken from article PMC8163358.

Target: gramicidin S synthetase A (GrsA) (UniProt P0C062)
Assay: MST; 1 nM GrsA labelled with NT-647-NHS (RED-NHS kit), dilution series of TycB1(WT); NRPS buffer (50 mM HEPES, 100 mM NaCl, 10 mM MgCl2, 1 mM EDTA, pH 7.0) with 0.05% (v/v) Tween-20; triplicate; sigmoidal fit

Chain of UniProt P0C062 (P0C062 whole entry): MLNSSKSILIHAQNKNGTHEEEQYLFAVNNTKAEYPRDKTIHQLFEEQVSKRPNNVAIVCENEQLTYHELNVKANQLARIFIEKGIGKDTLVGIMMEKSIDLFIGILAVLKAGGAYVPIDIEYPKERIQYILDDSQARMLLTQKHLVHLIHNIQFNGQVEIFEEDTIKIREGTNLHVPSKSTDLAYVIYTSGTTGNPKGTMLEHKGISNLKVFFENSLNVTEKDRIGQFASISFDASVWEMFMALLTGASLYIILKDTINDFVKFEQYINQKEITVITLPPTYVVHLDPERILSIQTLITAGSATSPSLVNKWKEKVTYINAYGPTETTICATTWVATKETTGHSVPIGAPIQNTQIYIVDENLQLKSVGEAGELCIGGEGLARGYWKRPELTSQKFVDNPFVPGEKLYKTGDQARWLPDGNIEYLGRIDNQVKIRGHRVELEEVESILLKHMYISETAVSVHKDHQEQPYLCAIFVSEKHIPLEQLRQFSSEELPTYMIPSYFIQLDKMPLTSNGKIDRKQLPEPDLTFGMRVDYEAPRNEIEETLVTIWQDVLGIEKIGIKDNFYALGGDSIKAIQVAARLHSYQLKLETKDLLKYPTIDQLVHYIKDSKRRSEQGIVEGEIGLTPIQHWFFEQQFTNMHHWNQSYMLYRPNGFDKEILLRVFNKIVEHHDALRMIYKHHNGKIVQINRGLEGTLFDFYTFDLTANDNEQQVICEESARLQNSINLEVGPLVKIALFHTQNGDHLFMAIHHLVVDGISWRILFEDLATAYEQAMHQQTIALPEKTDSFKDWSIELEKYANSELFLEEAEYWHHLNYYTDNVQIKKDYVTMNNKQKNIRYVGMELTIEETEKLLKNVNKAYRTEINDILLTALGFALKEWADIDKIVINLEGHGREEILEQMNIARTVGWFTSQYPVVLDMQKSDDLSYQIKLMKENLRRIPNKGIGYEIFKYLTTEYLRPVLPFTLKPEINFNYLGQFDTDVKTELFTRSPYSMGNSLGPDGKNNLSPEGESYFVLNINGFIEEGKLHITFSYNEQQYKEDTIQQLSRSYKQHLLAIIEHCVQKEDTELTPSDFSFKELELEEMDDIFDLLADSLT

Kd: 5 µM
Substance: TycB1 (wildtype) (from UniProt O30408 1-3587) (domain or fragment)
